Drawing on patent US20220073604A1 (ARGENX BVBA, published 2022), this text covers average binding and koff for five molecules.

The target in test [1] is IL-6 (bact-hIL-6, euk-hIL-6 and bact-cy IL-6; 'average binding' of Table 21). The test can be described thus: average binding level in the off-rate screen (unit not given; n = 3).
Test [2] addresses T1, eukaryotically produced human IL-6 (human, UniProt P05231 30-212).
T1 construct: also called euk-hIL-6; EUK IL-6
Put plainly: off-rate of Fab 111A7 variant on euk-hIL-6 (binding kinetics, SPR presumed; n = 3).

Test [3] has as its target T2, bacterially produced human IL-6 (human, UniProt P05231 30-212).
T2 construct: also called bact-hIL-6; BACT IL-6
The test can be described thus: off-rate of Fab 111A7 variant on bact-hIL-6 (binding kinetics, SPR presumed; n = 3).

The target of test [4] is T3, bacterially produced cynomolgus monkey IL-6 (cynomolgus monkey, UniProt P79341 28-212, limits assumed).
T3 construct: also called bact-cy IL-6; HIS-cyIL-6
The test can be described thus: off-rate of Fab 111A7 variant on bact-cy IL-6 (binding kinetics, SPR presumed; n = 3).

Test [5] has as its target IL-6 (bact-hIL-6, euk-hIL-6 and bact-cy IL-6; 'average binding' of Table 21). Put plainly: average binding level in the off-rate screen (unit not given; n = 4).
The target in test [6] is T3, bacterially produced cynomolgus monkey …. Put plainly: off-rate of Fab 111A7 variant on bact-cy IL-6 (binding kinetics, SPR presumed; n = 4).
In test [7] the target is T4, bacterially produced human IL-6 (human, UniProt P05231 30-212).
T4 construct: Immobilised on the Biacore chip; also called BACT IL-6 (2-1); bactIL-6
Put plainly: SPR (Biacore), periplasmic Fab.
Procedure: (§1) The binding kinetics of periplasmic fractions of bacteria containing the mutant Fabs were tested using surface Plasmon resonance (Biacore) and the off-rate for each mutant was determined.

The target in test [8] is T5, eukaryotically produced human IL-6 (human, UniProt P05231 30-212).
T5 construct: Immobilised on the Biacore chip; also called Euk IL-6; EUK IL-6 (3-1)
The test can be described thus: SPR (Biacore), periplasmic Fab.
Procedure: as §1

Test [9] has as its target T2, bacterially produced human IL-6. The test can be described thus: off-rate of Fab 111A7 variant on bact-hIL-6 (binding kinetics, SPR presumed; n = 1).
Test [10] addresses T3, bacterially produced cynomolgus monkey …. The test can be described thus: off-rate of Fab 111A7 variant on bact-cy IL-6 (binding kinetics, SPR presumed; n = 1).
Test [11] concerns the target IL-6 (bact-hIL-6, euk-hIL-6 and bact-cy IL-6; 'average binding' of Table 21). Put plainly: average binding level in the off-rate screen (unit not given; n = 1).
Test [12] addresses T1, eukaryotically produced human IL-6. The test can be described thus: off-rate of Fab 111A7 variant on euk-hIL-6 (binding kinetics, SPR presumed; n = 1).
The target of test [13] is T2, bacterially produced human IL-6. Put plainly: off-rate of Fab 111A7 variant on bact-hIL-6 (binding kinetics, SPR presumed; n = 5).
For test [14], the target named is T3, bacterially produced cynomolgus monkey …. The test can be described thus: off-rate of Fab 111A7 variant on bact-cy IL-6 (binding kinetics, SPR presumed; n = 5).
Test [15] concerns the target IL-6 (bact-hIL-6, euk-hIL-6 and bact-cy IL-6; 'average binding' of Table 21). The test can be described thus: average binding level in the off-rate screen (unit not given; n = 5).
The target of test [16] is T1, eukaryotically produced human IL-6. The test can be described thus: off-rate of Fab 111A7 variant on euk-hIL-6 (binding kinetics, SPR presumed; n = 5).

Numbering of substitutions follows the chain as printed. Names may count otherwise.

B1: Fab 111A7M_A (CMC optimized variant of Fab 111A7, CDR3 methionine to alanine) (Fab, V domains shown)
VH: EVQLLESGGGLVQPGGSLRLSCAASGFTFSSYAMSWVRQAPGKGPEWVSRISAGGGSTYYGDSVKGRFTISRDNSKNTLYLQMNSLRAEDTAVYYCANRAGWGAGDYWGQGTLVTVSS
VL: QTVVTQEPSFSVSPGGTVTLTCGLSSGSVTASNYPGWYQQTPGQAPRALIYSTNDRHSGVPDRFSGSISGNKAALTITGAQAEDEADYYCALDIGDITEFGGGTQLTVL
notes: Fab; The VL is that of 111A7; also called M98X: A
What is called koff is the rate constant with which the complex falls apart. For B1, the average binding in [1] worked out at 102. The koff in test [2] turned out to be 4.77e-05 s⁻¹; in test [3] it was 8.5e-05 s⁻¹; in test [4], 0.000131 s⁻¹.

B2: Fab 111A7 with the CDR3 methionine changed to H (Fab, V domains shown)
VH: B1 VH with A104H
VL: B1 VL
Molecule B2 came in with an average binding in [5] of 109. In test [6], this molecule registered a koff of 0.000222 s⁻¹.

B3: 111A7 Fab (W98, M100) (Fab, V domains shown)
VH: B1 VH with A104M
VL: B1 VL
notes: also called WGM
As to B3, the koff in test [7] worked out at 5e-05 s⁻¹; in [8], 4.67e-05 s⁻¹.

B4: Fab 111A7M_L (CMC optimized variant of Fab 111A7, CDR3 methionine to leucine) (Fab, V domains shown)
VH: B1 VH with A104L
VL: B1 VL
notes: Fab; The VL is that of 111A7; also called M98X: L
Regarding B4, the figures for the koff in test [9], in [10] and in [12] were 0.000117 s⁻¹, 0.000184 s⁻¹ and 6.78e-05 s⁻¹, respectively. The average binding in test [11] amounted to 141.

B5: Fab 111A7M_S (CMC optimized variant of Fab 111A7, CDR3 methionine to serine) (Fab, V domains shown)
VH: B1 VH with A104S
VL: B1 VL
notes: Fab; The VL is that of 111A7; also called M98X: S
For B5, the koff was determined as 9.81e-05 s⁻¹ in test [13], 0.000146 s⁻¹ in [14] and 5.46e-05 s⁻¹ in [16]. Besides, the average binding in [15] is 118.
